B1: 14-3-3 protein sigma (Homo sapiens), P31947 (parent)
chain: MERASLIQKAKLAEQAERYEDMAAFMKGAVEKGEELSCEERNLLSVAYKNVVGGQRAAWRVLSSIEQKSNEEGSEEKGPEVREYREKVETELQGVCDTVLGLLDSHLIKEAGDAESRVFYLKMKGDYYRYLAEVATGDDKKRIIDSARSAYQEAMDISKKEMPPTNPIRLGLALNFSVFHYEIANSPEEAISLAKTTFDEAMADLHTLSEDSYKDSTLIMQLLRDNLTLWTADNAGEEGGEAPQEPQS

Variants of: B1
Conditions: with pak5_human PAK5, Q9P286

Variant | effect of a mutation on the interaction
K49E;R56E;V178D | decreasing interaction strength

Variants of: B1
Conditions: with cdk16_human CDK16, Q00536

Variant | effect of a mutation on the interaction
K49E;R56E;V178D | decreasing interaction strength

Variants of: B1
Conditions: with sik1_human SIK1, P57059

Variant | effect of a mutation on the interaction
K49E;R56E;V178D | decreasing interaction strength

Variants of: B1
Conditions: with mark3_human MARK3, P27448

Variant | effect of a mutation on the interaction
K49E;R56E;V178D | decreasing interaction strength

Variants of: B1
Conditions: with plk1_human PLK1, P53350

Variant | effect of a mutation on the interaction
K49E;R56E;V178D | decreasing interaction strength

Variants of: B1
Conditions: with cd28_human CD28, P10747

Variant | effect of a mutation on the interaction
K49E;R56E;V178D | decreasing interaction strength

Variants of: B1
Conditions: with srs10_human SRSF10, O75494

Variant | effect of a mutation on the interaction
K49E;R56E;V178D | decreasing interaction strength

Variants of: B1
Conditions: with pabp1_human PABPC1, P11940

Variant | effect of a mutation on the interaction
K49E;R56E;V178D | decreasing interaction strength

Variants of: B1
Conditions: with foxo3_human FOXO3, O43524

Variant | effect of a mutation on the interaction
K49E;R56E;V178D | decreasing interaction strength

Variants of: B1
Conditions: with hdac4_human HDAC4, P56524
Sequence of hdac4_human HDAC4, P56524 (P56524 whole entry): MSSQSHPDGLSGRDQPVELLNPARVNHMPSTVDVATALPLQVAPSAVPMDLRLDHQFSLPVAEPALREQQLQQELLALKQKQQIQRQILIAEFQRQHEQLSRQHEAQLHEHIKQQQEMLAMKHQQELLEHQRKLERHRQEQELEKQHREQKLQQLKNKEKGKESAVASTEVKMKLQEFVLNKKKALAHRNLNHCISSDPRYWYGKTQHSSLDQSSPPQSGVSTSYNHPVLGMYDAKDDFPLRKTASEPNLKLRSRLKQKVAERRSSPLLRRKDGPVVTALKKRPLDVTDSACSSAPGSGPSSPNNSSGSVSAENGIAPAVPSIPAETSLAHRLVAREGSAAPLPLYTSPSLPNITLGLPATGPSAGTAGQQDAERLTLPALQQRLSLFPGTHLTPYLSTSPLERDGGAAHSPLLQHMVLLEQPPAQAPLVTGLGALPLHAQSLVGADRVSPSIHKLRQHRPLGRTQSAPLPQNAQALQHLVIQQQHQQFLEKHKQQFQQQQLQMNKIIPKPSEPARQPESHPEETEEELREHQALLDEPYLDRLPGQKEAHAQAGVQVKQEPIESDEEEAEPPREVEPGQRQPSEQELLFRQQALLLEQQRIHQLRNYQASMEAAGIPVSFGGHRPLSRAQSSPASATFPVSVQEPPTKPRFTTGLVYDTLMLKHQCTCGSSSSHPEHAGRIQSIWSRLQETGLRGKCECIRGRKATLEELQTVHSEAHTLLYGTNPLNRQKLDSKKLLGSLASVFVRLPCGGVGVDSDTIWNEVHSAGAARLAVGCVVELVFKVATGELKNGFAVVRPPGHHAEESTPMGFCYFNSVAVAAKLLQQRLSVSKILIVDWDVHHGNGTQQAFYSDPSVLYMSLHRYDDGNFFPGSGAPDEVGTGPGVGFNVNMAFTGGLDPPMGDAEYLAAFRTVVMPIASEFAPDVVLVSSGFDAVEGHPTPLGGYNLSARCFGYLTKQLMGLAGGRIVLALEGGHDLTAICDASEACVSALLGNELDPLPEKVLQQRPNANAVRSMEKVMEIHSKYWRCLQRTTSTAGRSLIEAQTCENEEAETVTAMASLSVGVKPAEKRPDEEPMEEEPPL

Variant | effect of a mutation on the interaction
K49E;R56E;V178D | decreasing interaction strength

Variants of: B1
Conditions: with wdr62_human WDR62, O43379
Sequence of wdr62_human WDR62, O43379 (O43379 whole entry): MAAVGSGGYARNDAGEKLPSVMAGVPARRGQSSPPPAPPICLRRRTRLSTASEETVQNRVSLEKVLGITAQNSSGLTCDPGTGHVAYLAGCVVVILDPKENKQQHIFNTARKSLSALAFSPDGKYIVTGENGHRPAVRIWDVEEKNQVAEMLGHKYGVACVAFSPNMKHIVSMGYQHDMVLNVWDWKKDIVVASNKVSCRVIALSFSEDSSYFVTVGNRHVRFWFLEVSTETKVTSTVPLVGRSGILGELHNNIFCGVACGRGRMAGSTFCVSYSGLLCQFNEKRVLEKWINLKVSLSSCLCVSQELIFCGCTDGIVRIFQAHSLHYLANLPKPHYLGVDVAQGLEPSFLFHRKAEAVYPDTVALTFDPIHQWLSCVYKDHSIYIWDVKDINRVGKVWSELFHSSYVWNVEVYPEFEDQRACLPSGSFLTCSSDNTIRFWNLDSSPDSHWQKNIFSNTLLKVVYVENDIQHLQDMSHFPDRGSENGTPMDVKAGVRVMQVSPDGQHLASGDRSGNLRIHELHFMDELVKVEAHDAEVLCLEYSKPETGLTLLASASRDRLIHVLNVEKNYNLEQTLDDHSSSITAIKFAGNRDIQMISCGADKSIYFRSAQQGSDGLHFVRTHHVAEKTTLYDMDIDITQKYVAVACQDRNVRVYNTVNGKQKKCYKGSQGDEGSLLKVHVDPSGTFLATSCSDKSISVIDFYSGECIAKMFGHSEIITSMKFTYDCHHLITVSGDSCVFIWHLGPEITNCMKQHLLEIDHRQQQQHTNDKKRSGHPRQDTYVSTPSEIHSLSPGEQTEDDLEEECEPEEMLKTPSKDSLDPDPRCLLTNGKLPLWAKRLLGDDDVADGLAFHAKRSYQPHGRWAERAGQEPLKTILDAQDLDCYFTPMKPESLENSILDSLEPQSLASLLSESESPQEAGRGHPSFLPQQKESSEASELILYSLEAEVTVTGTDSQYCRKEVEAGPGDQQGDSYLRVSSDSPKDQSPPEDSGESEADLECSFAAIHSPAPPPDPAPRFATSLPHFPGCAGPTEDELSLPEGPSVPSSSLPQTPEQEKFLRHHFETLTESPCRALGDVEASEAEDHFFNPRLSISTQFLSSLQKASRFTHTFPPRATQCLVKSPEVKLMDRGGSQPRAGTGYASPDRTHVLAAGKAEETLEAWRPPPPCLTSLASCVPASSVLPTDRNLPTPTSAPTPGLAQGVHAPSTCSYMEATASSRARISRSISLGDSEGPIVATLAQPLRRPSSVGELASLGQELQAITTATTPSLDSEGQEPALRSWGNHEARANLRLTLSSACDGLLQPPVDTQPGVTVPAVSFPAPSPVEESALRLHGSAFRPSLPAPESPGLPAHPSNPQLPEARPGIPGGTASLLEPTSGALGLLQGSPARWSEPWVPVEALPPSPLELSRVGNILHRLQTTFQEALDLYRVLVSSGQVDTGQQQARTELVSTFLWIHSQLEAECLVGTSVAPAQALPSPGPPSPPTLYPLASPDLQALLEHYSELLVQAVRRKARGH

Variant | effect of a mutation on the interaction
K49E;R56E;V178D | decreasing interaction strength

Variants of: B1
Conditions: with pml_human PML

Variant | effect of a mutation on the interaction
K49E;R56E;V178D | decreasing interaction strength

Variants of: B1
Conditions: with wwp2_human WWP2, O00308

Variant | effect of a mutation on the interaction
K49E;R56E;V178D | decreasing interaction strength

Variants of: B1
Conditions: with trim9_human TRIM9, Q9C026

Variant | effect of a mutation on the interaction
K49E;R56E;V178D | decreasing interaction strength

Variants of: B1
Conditions: with kctd8_human KCTD8, Q6ZWB6
Sequence of kctd8_human KCTD8, Q6ZWB6 (Q6ZWB6 whole entry): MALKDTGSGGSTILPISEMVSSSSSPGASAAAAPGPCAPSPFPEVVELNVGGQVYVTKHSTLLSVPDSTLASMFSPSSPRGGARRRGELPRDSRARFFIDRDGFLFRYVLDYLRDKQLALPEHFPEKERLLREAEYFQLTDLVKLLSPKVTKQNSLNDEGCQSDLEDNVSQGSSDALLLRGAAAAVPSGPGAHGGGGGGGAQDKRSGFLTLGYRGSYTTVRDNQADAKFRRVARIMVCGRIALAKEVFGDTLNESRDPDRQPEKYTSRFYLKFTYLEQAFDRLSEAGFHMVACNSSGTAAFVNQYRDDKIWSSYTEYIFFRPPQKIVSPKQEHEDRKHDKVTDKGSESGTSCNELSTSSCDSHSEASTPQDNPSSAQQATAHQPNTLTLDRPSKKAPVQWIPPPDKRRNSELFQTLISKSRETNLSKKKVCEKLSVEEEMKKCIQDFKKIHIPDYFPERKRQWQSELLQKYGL

Variant | effect of a mutation on the interaction
K49E;R56E;V178D | decreasing interaction strength

Variants of: B1
Conditions: with nedd4_human NEDD4, P46934

Variant | effect of a mutation on the interaction
K49E;R56E;V178D | decreasing interaction strength

Variants of: B1
Conditions: with dtl_human DTL

Variant | effect of a mutation on the interaction
K49E;R56E;V178D | decreasing interaction strength

Variants of: B1
Conditions: with cbl_human CBL

Variant | effect of a mutation on the interaction
K49E;R56E;V178D | decreasing interaction strength

Variants of: B1
Conditions: with kcna7_human KCNA7, Q96RP8

Variant | effect of a mutation on the interaction
K49E;R56E;V178D | decreasing interaction strength

Variants of: B1
Conditions: with shkb1_human SHKBP1, Q8TBC3

Variant | effect of a mutation on the interaction
K49E;R56E;V178D | decreasing interaction strength

Variants of: B1
Conditions: with abtb2_human ABTB2, Q8N961

Variant | effect of a mutation on the interaction
K49E;R56E;V178D | decreasing interaction strength

Variants of: B1
Conditions: with ned4l_human NEDD4L

Variant | effect of a mutation on the interaction
K49E;R56E;V178D | decreasing interaction strength

Variants of: B1
Conditions: with sh3r1_human SH3RF1, Q7Z6J0

Variant | effect of a mutation on the interaction
K49E;R56E;V178D | decreasing interaction strength

Variants of: B1
Conditions: with braf_human BRAF

Variant | effect of a mutation on the interaction
K49E;R56E;V178D | decreasing interaction strength

Variants of: B1
Conditions: with FAM110B

Variant | effect of a mutation on the interaction
K49E;R56E;V178D | decreasing interaction strength

Variants of: B1
Conditions: with iscu_human ISCU

Variant | effect of a mutation on the interaction
K49E;R56E;V178D | decreasing interaction strength

Variants of: B1
Conditions: with foxo4_human FOXO4, P98177
Sequence of foxo4_human FOXO4, P98177 (P98177 whole entry): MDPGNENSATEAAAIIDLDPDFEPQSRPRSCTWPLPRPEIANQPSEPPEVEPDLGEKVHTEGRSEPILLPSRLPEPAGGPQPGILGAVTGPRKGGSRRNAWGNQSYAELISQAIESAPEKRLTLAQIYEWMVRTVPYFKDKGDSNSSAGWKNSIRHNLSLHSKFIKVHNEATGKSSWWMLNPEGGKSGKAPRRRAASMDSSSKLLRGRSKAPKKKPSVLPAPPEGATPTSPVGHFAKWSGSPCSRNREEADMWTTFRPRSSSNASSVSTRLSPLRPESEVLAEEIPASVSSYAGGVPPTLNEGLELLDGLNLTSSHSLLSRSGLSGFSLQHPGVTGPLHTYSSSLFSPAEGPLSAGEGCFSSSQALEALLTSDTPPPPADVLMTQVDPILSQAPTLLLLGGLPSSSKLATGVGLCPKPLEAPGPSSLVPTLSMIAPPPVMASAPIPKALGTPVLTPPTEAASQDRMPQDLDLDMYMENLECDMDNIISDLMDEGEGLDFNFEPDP

Variant | effect of a mutation on the interaction
K49E;R56E;V178D | decreasing interaction strength

Variants of: B1
Conditions: with klc4_human KLC4, Q9NSK0
Sequence of klc4_human KLC4, Q9NSK0 (Q9NSK0 whole entry): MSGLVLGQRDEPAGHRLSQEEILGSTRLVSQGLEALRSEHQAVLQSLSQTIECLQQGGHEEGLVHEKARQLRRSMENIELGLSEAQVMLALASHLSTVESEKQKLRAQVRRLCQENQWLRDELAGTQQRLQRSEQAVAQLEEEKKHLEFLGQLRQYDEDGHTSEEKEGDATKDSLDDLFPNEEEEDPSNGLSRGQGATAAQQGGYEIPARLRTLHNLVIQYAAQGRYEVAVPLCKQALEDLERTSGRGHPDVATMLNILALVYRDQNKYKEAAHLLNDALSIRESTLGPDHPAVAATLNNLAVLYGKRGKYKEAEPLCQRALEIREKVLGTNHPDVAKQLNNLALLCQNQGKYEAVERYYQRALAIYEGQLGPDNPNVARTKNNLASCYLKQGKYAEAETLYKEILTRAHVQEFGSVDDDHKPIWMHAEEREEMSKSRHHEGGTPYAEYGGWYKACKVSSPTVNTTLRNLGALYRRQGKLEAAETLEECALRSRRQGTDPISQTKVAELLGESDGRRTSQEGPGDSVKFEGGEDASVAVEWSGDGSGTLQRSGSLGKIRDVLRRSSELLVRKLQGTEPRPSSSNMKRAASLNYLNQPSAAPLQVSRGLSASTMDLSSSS

Variant | effect of a mutation on the interaction
K49E;R56E;V178D | decreasing interaction strength

Variants of: B1
Conditions: with larp1_human LARP1, Q6PKG0

Variant | effect of a mutation on the interaction
K49E;R56E;V178D | decreasing interaction strength

Variants of: B1
Conditions: with klc3_human KLC3, Q6P597

Variant | effect of a mutation on the interaction
K49E;R56E;V178D | decreasing interaction strength

Variants of: B1
Conditions: with dnjb1_human DNAJB1, P25685

Variant | effect of a mutation on the interaction
K49E;R56E;V178D | decreasing interaction strength

Variants of: B1
Conditions: with wee1_human WEE1, P30291

Variant | effect of a mutation on the interaction
K49E;R56E;V178D | decreasing interaction strength

Variants of: B1
Conditions: with grip1_human GRIP1, Q9Y3R0

Variant | effect of a mutation on the interaction
K49E;R56E;V178D | decreasing interaction strength

Variants of: B1
Conditions: with KIAA0930, Q6ICG6

Variant | effect of a mutation on the interaction
K49E;R56E;V178D | decreasing interaction strength

Variants of: B1
Conditions: with ablm1_human ABLIM1, O14639

Variant | effect of a mutation on the interaction
K49E;R56E;V178D | decreasing interaction strength

Variants of: B1
Conditions: with baip2_human BAIAP2, Q9UQB8

Variant | effect of a mutation on the interaction
K49E;R56E;V178D | decreasing interaction strength

Variants of: B1
Conditions: with nav1_human NAV1, Q8NEY1

Variant | effect of a mutation on the interaction
K49E;R56E;V178D | decreasing interaction strength

Variants of: B1
Conditions: with pcm1_human PCM1, Q15154

Variant | effect of a mutation on the interaction
K49E;R56E;V178D | decreasing interaction strength

Variants of: B1
Conditions: with EPB41L2, O43491

Variant | effect of a mutation on the interaction
K49E;R56E;V178D | decreasing interaction strength

Variants of: B1
Conditions: with kif1b_human KIF1B

Variant | effect of a mutation on the interaction
K49E;R56E;V178D | decreasing interaction strength

Variants of: B1
Conditions: with clap1_human CLASP1, Q7Z460

Variant | effect of a mutation on the interaction
K49E;R56E;V178D | decreasing interaction strength

Variants of: B1
Conditions: with pum1_human PUM1, Q14671

Variant | effect of a mutation on the interaction
K49E;R56E;V178D | decreasing interaction strength

Variants of: B1
Conditions: with klc2_human KLC2, Q9H0B6
Sequence of klc2_human KLC2, Q9H0B6 (Q9H0B6 whole entry): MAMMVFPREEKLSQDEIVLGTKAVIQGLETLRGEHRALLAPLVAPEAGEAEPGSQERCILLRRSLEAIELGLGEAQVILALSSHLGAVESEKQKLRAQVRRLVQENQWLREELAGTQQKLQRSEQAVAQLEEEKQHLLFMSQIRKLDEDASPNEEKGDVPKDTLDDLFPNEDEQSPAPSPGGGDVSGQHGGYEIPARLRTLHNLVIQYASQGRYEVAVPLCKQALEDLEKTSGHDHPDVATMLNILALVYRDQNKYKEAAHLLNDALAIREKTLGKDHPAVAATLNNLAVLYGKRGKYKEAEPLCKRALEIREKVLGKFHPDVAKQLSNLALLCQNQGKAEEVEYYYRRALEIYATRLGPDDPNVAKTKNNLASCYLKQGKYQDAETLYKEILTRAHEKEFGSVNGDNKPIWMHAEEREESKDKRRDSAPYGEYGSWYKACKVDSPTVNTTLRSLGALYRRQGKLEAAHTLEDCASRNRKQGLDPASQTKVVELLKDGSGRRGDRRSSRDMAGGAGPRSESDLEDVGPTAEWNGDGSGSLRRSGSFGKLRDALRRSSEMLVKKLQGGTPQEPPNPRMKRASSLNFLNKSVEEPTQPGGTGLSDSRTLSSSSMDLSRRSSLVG

Variant | effect of a mutation on the interaction
K49E;R56E;V178D | decreasing interaction strength

Variants of: B1
Conditions: with foxo1_human FOXO1, Q12778

Variant | effect of a mutation on the interaction
K49E;R56E;V178D | decreasing interaction strength

Variants of: B1
Conditions: with irs1_human IRS1, P35568

Variant | effect of a mutation on the interaction
K49E;R56E;V178D | decreasing interaction strength

Variants of: B1
Conditions: with atat_human ATAT1, Q5SQI0

Variant | effect of a mutation on the interaction
K49E;R56E;V178D | decreasing interaction strength

Variants of: B1
Conditions: with 1433e_human YWHAE

Variant | effect of a mutation on the interaction
K49E;R56E;V178D | decreasing interaction strength

Reference: IntAct's records for PubMed 36931259
